According to PMC5017731:

Target: cardiac ryanodine receptor (RyR2) (rat (endogenous in neonatal ventricular cardiomyocytes)) (UniProt B0LPN4)
UniProt B0LPN4, sequence (B0LPN4 whole entry): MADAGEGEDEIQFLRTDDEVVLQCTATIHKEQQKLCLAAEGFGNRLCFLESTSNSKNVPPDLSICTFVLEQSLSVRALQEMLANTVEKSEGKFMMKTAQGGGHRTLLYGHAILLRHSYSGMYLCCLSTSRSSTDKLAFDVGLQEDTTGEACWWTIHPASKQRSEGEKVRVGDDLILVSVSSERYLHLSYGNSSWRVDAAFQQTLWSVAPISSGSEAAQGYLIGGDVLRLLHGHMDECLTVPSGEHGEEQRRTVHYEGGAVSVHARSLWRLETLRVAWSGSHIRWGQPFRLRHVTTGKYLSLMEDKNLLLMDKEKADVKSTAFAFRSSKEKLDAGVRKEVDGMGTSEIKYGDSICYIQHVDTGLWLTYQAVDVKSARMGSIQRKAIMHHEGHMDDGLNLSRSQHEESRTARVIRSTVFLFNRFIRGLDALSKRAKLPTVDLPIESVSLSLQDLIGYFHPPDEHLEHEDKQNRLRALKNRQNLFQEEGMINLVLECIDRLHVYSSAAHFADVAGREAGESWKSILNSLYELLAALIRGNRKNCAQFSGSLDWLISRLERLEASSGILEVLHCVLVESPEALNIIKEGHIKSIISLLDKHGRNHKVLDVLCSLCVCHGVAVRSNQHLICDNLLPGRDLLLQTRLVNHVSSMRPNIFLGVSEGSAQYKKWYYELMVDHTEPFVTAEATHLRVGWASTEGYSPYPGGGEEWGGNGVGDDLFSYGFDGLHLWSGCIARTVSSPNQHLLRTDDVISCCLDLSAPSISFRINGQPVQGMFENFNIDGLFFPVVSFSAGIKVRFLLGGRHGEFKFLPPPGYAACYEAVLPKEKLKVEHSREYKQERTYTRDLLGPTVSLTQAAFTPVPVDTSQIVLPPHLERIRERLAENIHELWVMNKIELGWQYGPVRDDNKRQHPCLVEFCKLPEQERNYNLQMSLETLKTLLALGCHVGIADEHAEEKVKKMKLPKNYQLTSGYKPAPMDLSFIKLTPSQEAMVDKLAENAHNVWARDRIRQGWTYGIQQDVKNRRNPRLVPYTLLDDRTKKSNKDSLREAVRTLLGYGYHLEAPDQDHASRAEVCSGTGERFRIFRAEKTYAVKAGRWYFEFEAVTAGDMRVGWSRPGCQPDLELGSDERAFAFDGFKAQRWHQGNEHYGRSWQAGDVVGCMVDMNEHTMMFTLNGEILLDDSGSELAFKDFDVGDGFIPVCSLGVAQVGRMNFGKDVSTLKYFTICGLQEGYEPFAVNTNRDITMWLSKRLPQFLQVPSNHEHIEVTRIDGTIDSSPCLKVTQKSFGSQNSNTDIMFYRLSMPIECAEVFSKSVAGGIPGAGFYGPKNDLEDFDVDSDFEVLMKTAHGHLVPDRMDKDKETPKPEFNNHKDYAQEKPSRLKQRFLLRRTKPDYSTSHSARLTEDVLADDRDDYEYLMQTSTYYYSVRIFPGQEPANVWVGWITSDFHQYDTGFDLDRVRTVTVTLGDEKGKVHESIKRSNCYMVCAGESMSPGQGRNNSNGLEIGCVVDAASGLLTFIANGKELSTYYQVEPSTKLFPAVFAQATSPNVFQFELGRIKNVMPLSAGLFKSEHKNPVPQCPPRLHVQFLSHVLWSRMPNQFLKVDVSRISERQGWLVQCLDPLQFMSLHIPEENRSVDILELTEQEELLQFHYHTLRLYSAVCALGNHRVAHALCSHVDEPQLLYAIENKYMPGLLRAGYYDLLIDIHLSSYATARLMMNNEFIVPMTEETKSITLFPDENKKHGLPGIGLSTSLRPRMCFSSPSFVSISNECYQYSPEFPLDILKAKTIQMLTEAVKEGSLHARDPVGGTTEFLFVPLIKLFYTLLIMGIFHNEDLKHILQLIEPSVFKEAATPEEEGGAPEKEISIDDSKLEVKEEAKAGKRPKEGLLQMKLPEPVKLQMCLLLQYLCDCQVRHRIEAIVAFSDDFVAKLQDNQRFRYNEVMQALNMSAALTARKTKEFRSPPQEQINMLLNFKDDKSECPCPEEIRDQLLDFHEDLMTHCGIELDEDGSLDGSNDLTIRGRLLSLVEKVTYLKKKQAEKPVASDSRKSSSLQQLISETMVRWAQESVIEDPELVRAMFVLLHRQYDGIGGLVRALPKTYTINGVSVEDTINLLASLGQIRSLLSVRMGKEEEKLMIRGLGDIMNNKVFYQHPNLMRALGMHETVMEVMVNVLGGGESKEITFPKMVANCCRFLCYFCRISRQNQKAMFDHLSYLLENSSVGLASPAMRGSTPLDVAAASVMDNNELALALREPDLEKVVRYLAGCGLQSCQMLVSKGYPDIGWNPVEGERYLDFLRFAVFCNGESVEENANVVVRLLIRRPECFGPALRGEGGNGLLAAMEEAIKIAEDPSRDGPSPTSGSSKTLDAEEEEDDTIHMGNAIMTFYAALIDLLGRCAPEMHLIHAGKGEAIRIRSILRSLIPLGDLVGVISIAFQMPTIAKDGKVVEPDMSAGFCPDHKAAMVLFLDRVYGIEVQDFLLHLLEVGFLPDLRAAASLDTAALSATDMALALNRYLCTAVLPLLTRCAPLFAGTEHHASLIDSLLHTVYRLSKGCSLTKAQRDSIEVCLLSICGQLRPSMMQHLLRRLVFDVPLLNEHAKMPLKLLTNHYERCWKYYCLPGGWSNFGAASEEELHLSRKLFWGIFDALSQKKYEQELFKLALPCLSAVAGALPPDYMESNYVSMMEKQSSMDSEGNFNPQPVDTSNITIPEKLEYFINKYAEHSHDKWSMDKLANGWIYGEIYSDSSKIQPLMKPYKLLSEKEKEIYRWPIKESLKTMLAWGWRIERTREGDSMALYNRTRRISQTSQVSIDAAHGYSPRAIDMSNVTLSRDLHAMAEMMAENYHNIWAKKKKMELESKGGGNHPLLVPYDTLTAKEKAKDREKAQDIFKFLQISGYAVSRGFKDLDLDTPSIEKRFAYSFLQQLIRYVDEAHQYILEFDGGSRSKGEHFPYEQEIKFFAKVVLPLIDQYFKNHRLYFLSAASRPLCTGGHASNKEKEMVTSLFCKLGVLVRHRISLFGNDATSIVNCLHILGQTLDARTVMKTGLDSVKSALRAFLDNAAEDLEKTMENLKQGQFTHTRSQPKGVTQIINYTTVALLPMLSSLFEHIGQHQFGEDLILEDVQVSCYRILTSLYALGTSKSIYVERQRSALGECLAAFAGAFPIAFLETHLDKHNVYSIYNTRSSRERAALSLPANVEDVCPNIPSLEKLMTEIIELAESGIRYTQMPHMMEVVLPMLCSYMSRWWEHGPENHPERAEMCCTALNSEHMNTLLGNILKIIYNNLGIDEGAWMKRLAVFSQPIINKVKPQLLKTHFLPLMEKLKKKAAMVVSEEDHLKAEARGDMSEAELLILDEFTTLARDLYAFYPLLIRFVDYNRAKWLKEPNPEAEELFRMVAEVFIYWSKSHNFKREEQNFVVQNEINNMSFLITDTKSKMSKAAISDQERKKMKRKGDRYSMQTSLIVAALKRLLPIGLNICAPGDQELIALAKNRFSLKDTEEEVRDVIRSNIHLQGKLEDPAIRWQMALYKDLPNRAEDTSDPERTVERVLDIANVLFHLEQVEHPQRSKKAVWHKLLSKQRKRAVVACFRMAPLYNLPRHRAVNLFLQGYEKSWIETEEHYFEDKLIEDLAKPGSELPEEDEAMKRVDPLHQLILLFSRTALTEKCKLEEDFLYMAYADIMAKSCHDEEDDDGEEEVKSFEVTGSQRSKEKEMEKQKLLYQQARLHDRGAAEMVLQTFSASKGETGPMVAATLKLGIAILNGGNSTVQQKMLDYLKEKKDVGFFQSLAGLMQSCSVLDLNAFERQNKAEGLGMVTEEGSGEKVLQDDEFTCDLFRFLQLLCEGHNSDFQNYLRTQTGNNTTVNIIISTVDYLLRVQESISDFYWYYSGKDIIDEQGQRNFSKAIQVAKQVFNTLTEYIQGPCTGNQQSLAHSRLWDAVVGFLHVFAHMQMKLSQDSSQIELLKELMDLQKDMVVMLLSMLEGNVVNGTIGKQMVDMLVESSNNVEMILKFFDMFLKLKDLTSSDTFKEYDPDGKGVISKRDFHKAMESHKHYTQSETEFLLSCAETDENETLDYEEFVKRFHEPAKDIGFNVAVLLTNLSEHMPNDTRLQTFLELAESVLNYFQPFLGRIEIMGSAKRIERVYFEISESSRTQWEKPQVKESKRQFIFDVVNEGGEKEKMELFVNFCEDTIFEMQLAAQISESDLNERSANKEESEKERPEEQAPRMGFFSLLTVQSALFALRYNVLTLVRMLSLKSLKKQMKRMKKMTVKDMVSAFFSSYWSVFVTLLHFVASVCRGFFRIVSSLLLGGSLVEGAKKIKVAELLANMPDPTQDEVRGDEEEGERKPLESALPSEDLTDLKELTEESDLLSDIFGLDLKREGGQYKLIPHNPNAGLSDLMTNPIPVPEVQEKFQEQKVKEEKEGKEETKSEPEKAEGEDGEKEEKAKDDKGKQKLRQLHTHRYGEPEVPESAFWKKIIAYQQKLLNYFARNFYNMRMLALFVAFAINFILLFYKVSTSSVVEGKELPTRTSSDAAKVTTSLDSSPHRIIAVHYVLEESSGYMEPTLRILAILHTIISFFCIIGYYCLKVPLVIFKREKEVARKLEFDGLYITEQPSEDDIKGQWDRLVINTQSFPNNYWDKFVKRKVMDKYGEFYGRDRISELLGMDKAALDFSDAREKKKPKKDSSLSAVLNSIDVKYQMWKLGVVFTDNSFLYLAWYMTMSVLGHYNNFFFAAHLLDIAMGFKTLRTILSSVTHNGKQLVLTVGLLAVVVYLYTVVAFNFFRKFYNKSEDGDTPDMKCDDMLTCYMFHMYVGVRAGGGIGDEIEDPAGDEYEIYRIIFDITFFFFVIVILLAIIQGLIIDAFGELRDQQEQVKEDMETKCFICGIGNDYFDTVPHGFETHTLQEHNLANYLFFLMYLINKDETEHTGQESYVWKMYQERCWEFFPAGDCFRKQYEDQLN

B1: C-terminal half of GSTM2 (GSTM2C) (domain or fragment)
chain: PMTLGYWNIRGLAHSIRLLLEYTDSSYEEKKYTMGDAPDYDRSQWLNEKFKLGLDFPNLPYLIDGTHKITQSNAILRYIARKHNLCGESEKEQIREDILENQFMDSRMQLAKLCYDPDFEKLKPEYLQALPEMLKLYSQFLGKQPWFLGDKITFVDFIAYDVLERNQVFEPSCLDAFPNLKDFISRFEGLEKISAYMKSSRFLPRPVFTKMAVWGNK
**Q.** With B1 as the binder, how does the field-stimulated myocyte shortening after 2 h with 5, 10 and 15 uM GSTM2C, as percent of control (3.0%, 10.9% and 42.8%); significant only at 15 uM read?
**A.** 42.8 % of control
